Common to all, as to details: all L-DNA (mirror image); ITC: 20 mM HEPES-NaOH, 150 mM NaCl, 5 mM KCl, 2 mM MgCl2, 1 mM CaCl2, pH 7.4, 25 C; EMSA: same plus 0.05% Tween 20 and 10% glycerol, room temperature 30 min …
Data set [1] has as its target T1, native human alpha-thrombin (Homo sapiens) (UniProt P00734+P00734). Description: EMSA.
Data set [2] has as its target native bovine alpha-thrombin (Bos taurus (bovine)) (UniProt P00735+P00735). Description: ITC. (In ITC the heat of successive injections is recorded.)
The target in data set [3] is T1, native human alpha-thrombin (Homo sapiens). Description: ITC.
Data set [4] shares this target. Description: thrombin activity inhibition.

As usually defined, the Kd is the concentration at which binding is half-saturated. By IC50 is commonly meant the concentration needed to halve the response being measured.

Consider “ACGGAACGCGTTTCAAGACTACCGTGTTTGTTCCGT [Cy5-L-9-1t aptamer]”, for which the Kd in data set [1] was 21 nM.
Take “ACGGAACGCGTTTCAAGACTACCGTGTTTGTTCCGT [L-9-1t aptamer]”: the Kd in data set [2] was 1030 nM; in data set [3], 39 nM.
In the case of “CGGATCCAGTTACGGAACGCGTTTCAAGACTACCGTGTTTGTTCCGTTCATTCAGTAAGCTTCGG [L-9-1 aptamer]”, the Kd in data set [3] came to 29 nM.
“CGGATCCAGTTACGGATGAACTTGTTGAAACCCAACGGGAGAATCGTTCATTCAGTAAGCTTCGG [L-9-2 aptamer]”: in data set [3], the Kd is 168 nM. For the same sequence, in data set [4], the IC50 amounted to 317 nM.
In the case of “CGGATCCAGTTACGGATGAACTTGTTGAAACCCAACGGGAGCCTCGTTCATTCAGTAAGCTTCGGTGG [L-13 aptamer]”, the dissociation constant Kd in data set [3] was determined as 22 nM. In addition, in data set [4], the half-maximal inhibitory concentration (IC50) is 27 nM.
In the case of “GATGAACTTGTTGAAACCCAACGGGAGAATCGTTCATT [Cy5-L-9-2t aptamer]”, the Kd in data set [1] was determined as 355 nM.
Turning to “GATGAACTTGTTGAAACCCAACGGGAGAATCGTTCATT [L-9-2t aptamer]”, the Kd came out at 426 nM in data set [2] and 251 nM in data set [3]. In addition, the IC50 in data set [4] came to 479 nM.
For “GATGAACTTGTTGAAACCCAACGGGAGCCTCGTTCATT [Cy5-L-13t aptamer]”, in data set [1], the Kd amounted to 28 nM.
Regarding “GATGAACTTGTTGAAACCCAACGGGAGCCTCGTTCATT [L-13t aptamer]”, the values for the Kd in data set [2] and in data set [3] were 340 nM and 34 nM, respectively. For the same sequence, the half-inhibitory concentration (IC50) in data set [4] worked out at 46 nM.
In the case of “GGAACGCGTTTCAAGACTACCGTGTTTGTTCC [L-9-1t' aptamer]”, in data set [3], the dissociation constant (Kd) is 111 nM.

Values taken from publication PMC9646512.
